# Measurements: the supplement of paper PMC12042874
# ± gives the uncertainty stated by the source.
# Test: amyloid nucleation score (Sup35N fusion, yeast selection) (log enrichment); library NNK1; higher = more nucleation; inactive = no reads after selection
# Method in brief: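 The nucleation score is the log enrichment of output over input reads, calculated with DiMSum and centred on the mode score of non-aggregating sequences. Sequences with under 100 input reads were excluded. Reads came from Illumina sequencing of plasmid inserts from psi-negative yeast expressing Sup35N fused to peptides of 20 random codons, induced 24 hours with 100 μM copper sulfate and grown 7 days at 30°C without adenine and uracil.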
row,Substance,amyloid nucleation score
1,TGSLWRLRTSACWVLNHRKS,-1.09 ± 1
2,CRSGYRFLRRRAGLTVMR,-0.413 ± 1.5
3,HALTSDRYWKERPTIPRFRF,-0.174 ± 0.36
4,CPLTGDRTAVRHMRKSAFAE,-0.525 ± 0.4
5,FLFYRCLGVKFFVFFMIVSK,-0.817 ± 2.4
6,GYNVAFILHTTVKCVCVEM,0.757 ± 0.41
7,VMCAGQESESIRGGYSEVNG,1.17 ± 0.39
8,MLFPSVSKRLNVSALNCKNP,-0.083 ± 1.4
9,VGLISALANTGMFRTSNCVF,0.426 ± 0.5
10,LSLKASDMRIGRYRSDKATF,1.18 ± 0.79
11,SSCVTFSYMKSVFRFLPCWW,1.96 ± 0.092
12,FHAWSVFFIVRCLTEVRGYL,-0.081 ± 0.34
13,MLNVEGNTLKSWIYGRHLVP,0.097 ± 0.69
14,THQARVLNNVRALRSTFALL,2.5 ± 0.12
15,NRCVAGRWPNSFVVLGHTFN,-0.211 ± 0.71
16,MSVVWSWMYFIKLDTFA,-0.348 ± 0.23
17,LWFSYATCICIPRIPSNC,6.26 ± 0.071
18,SLSPWWIHANPWWPYMSNQV,inactive
19,AILNRLLSLPSFPVPSSDSQ,0.466 ± 1.4
20,IVVVGD,-1.63 ± 1.3
21,NGCLQRKNWLVSGSFLHFVD,-0.295 ± 0.72
22,HIQRYMWKGGLEFVLIVRRA,1.2 ± 0.4
23,SCIYLNGSPVDEDGKYVHDF,inactive
24,YNVWVWCERGQC,4.5 ± 0.1
25,LKVLYLRSDRVSWVSKPLVI,-0.405 ± 0.87

row,Substance,amyloid nucleation score
1,RFEIIYGWSTYVLDAGVSFQ,1.21 ± 0.13
2,MLHYSARGFRRHK,0.326 ± 1.2
3,TGRMGLTNRSEEFLSFLADS,-1.45 ± 0.89
4,HNSHRWYMGGTNVGVSCI,0.456 ± 0.93
5,GHWPQRCIMVVECYQRQAHK,0.115 ± 0.65
6,LISLRVHYAASLFFFPVDDF,0.998 ± 0.93
7,PIDAPISQLGLCMFGYQEGL,-0.999 ± 1.3
8,VVSDNSMDV,0.39 ± 0.47
9,MVGSAVVFVLENLGVTGSWG,0.072 ± 0.84
10,VAFWLLC,0.219 ± 0.38
11,QGSVSRCISEALTVRCYRTG,inactive
12,VPTYGFGLEIFKDFSMNR,-0.926 ± 0.44
13,MALLARFRGAFLVCSGFIAC,-1.56 ± 2.4
14,CYSRAYEEARSAI,1.21 ± 0.76
15,TPYLDFI,1.12 ± 0.56
16,GSSLTPCFEWMIIRCVEEDG,1.05 ± 0.79
17,QKLLTSMSVITW,1.81 ± 0.65
18,YDYHRNLSNHFLCFTLNWLT,5.23 ± 0.072
19,YQDFYMLSRLAKLGG,0.36 ± 0.61
20,GDCTLVMLINE,0.011 ± 0.28
21,EECAFYSSMK,inactive
22,TGCLVTWNIENLLRHQTFAM,0.227 ± 0.38
23,SASSMVFNTTSPT,-0.404 ± 0.51
24,WTRLLD,inactive
25,GIPCT,0.38 ± 0.72

row,Substance,amyloid nucleation score
1,MMSSEVLPINSCIRSWANAL,-0.431 ± 0.29
2,FPRLGCARTFSDHSMLACTI,0.098 ± 0.59
3,CNYTSPPLSVKDRASLCHTN,-0.301 ± 0.93
4,DVREITCLSHKRTRHQVHPV,0.07 ± 1.2
5,VTSSWNSDAFTWFYNDSWCL,inactive
6,YVPGTNILLIIGEICQVPTD,2.18 ± 0.22
7,FYQYVKCVIVPSVDALGVFS,0.931 ± 0.2
8,HTWNPDYVAECFKEFKRLYK,0.393 ± 0.61
9,WVDGESAPDDERRQWICDIG,-0.948 ± 1.3
10,FIVFISFSFWRVTGIR,-0.139 ± 0.59
11,EWDSYMGPFAERMEYNVVFH,0.398 ± 0.62
12,AEVTDMGDLFSERMLSVVQI,-0.499 ± 1.9
13,YIPQSPDDSFWEVMFYLFLS,-0.43 ± 1.2
14,LFRWVLLFFVRT,inactive
15,YWLLLSSENRECVLVTRRHR,-0.585 ± 1.7
16,QYEALLPLTKKNRTNTWQRQ,inactive
17,LPWRRGWSFSTLVSLTGLSA,0.353 ± 0.31
18,FVYHWRSVKGNLVWRCGSMD,0.95 ± 0.63
19,VAKAPSNSCTLCHDWYGRST,0.101 ± 1.4
20,FRVLNCVSYVFFQRHFRRCG,-0.974 ± 0.88
21,FFTIQMGYMALGMW,1.16 ± 0.23
22,SRIAMS,0.368 ± 1
23,KYTYGRHTQLVLDSIHSWLN,0.235 ± 0.75
24,DWWLPGMLMNRGGLQIVVLV,-0.84 ± 1.1
25,MMGGKDCQFYCSIPLFRVMM,2.2 ± 0.16

row,Substance,amyloid nucleation score
1,RDVAMESRVSGYVGVCGSYR,-0.71 ± 1.2
2,PESCANSWSMSYGAFGAVYC,inactive
3,KFLLLSCYIEWRLMSVLAKA,0.968 ± 0.69
4,FIRTRLIIYLSEDGYPVA,1.31 ± 0.21
5,PMVIKVLVGCRGYSDLNLYW,4.9 ± 0.079
6,LVVQLYS,-0.336 ± 0.62
7,SCYIDYNFYSWQGSWYCFKI,inactive
8,LKYCYGTT,0.171 ± 0.29
9,TFIVQPFLTENPIASRFESA,0.063 ± 0.38
10,INVMWRYSFWLEFQT,-0.442 ± 0.4
11,LWLRYGL,0.415 ± 0.72
12,SYKVTLVYSRHVVGVKVTRI,0.233 ± 0.86
13,IFILD,inactive
14,YPGRLRCSRVMSEFVLNSAL,-1.27 ± 0.68
15,TASRYLVVRN,0.875 ± 0.43
16,DMIDSGGNALHSSQAHNYRR,1.08 ± 0.37
17,NPAITGRFSYCT,0.456 ± 1.2
18,YHTNTGDDPSCPRPSTSYSG,1.98 ± 0.51
19,DLTCWLLFFNLLYSI,0.492 ± 0.33
20,LMFAISKIKIF,inactive
21,SNMNAFYTLEHVMPAKFEIS,1.07 ± 0.33
22,GGVFMMSSDSTQIIRYVKSR,0.752 ± 0.56
23,DASIIPYMNMFIMLTSLA,-0.889 ± 1.7
24,SEYETG,0.101 ± 0.34
25,FCLMMEVGSVLRNLVPVSFR,-0.122 ± 1.4

row,Substance,amyloid nucleation score
1,GFNMLC,0.224 ± 0.5
2,ARFRYVESSRQMSMNVVCLT,0.194 ± 0.38
3,MRHGSKAWQLYRLFKYDFFW,0.534 ± 0.9
4,SKSDQSWYFL,-0.227 ± 0.68
5,FIRASWCSRIYIKFVN,0.587 ± 0.43
6,LTRDLMCEPVLCGLLPVSGR,0.314 ± 1.4
7,GDIFSVQQPSNHQLETLKYS,inactive
8,MQFCVEYTRPVRYQLWGSLM,0.327 ± 0.83
9,LEKQMNASQFAPPRLLLRKL,0.498 ± 0.87
10,RVLRVFLGDTLFYCQSGSGL,1.84 ± 0.22
11,KIIPRRRKSFMLNTFKYPHD,1.62 ± 0.52
12,CKFIFRKIVVGFCFDQQ,3.67 ± 0.1
13,VTYKEQNGLLLFAPDSVQRD,inactive
14,VNCSRYRGESASDNWSGALL,-0.186 ± 0.85
15,CFIFFPSKIHPLICTKTRAK,0.446 ± 0.34
16,SRDRKVYLAYVYVYTRNVQT,0.683 ± 0.34
17,VVQGCIYYCHNVWYLDVFSF,4.62 ± 0.089
18,NLALITWFESYCQTMRSAWI,-0.145 ± 0.26
19,FPLSTQ,2.37 ± 0.43
20,YASTSMWVP,-0.401 ± 0.35
21,CMAFVFKTCFVFRCNVGKCA,0.527 ± 0.28
22,TDIVVCSCDGFWKYSYIGGL,2.18 ± 0.12
23,CGSRLGEMRAVTGPHLTPMR,-0.233 ± 1.1
24,HTWMSLRGVAFTCQ,-0.13 ± 0.3
25,LSRFRLFSYMYVLHKCNMGM,-0.777 ± 1.2

row,Substance,amyloid nucleation score
1,RYAISYNLRVVGLISMYRNT,0.655 ± 0.29
2,HSVVLILCLAL,0.057 ± 1.2
3,AGSLAM,-0.246 ± 0.48
4,IVIAVMSGSYVSLKSWFLRH,-1.5 ± 1.3
5,VLKDFYNDDKRFQRRL,0.421 ± 0.3
6,RCMSDFRPVWVYVS,-0.222 ± 0.86
7,RTSRHVVVRREMRDRT,0.202 ± 0.21
8,YGLMVVVKVS,6.666 ± 0.043
9,FHEDKIS,1.34 ± 0.36
10,YKVSKMNRRDTNGNLVNRRV,-0.211 ± 1.2
11,VVKVWPYYSYVSMV,-0.114 ± 0.55
12,TFQHCLRYWPNHSRLNSCRL,0.155 ± 0.25
13,PRTLPVLFNLSLKGSSHTYF,4.52 ± 0.064
14,FLWVTWYFSTVFYVNWALE,0.505 ± 0.89
15,LVPNLLVHGVYY,-2.39 ± 2.4
16,LRVKSSGDLSLSGSFDCDV,0.199 ± 0.64
17,SFFWVYHRYSMPRSLCVM,inactive
18,SNEYYPSLHYRVSVGKGLGR,-0.154 ± 1.2
19,SMMEAFDPKYAVSWSVESLT,1.26 ± 0.67
20,SVTLIGFILDLRTGHILWYK,-0.423 ± 0.62
21,WHEWNSVEWVGRSWTTDFEW,inactive
22,HVDKFLG,-0.025 ± 0.6
23,LRVPRCMIKRLHYGICPSSG,0.094 ± 0.91
24,MKMRFVVSLMNSERSSGRNE,0.9 ± 0.5
25,FEGAW,-0.187 ± 1

row,Substance,amyloid nucleation score
1,QVHIERDVERPYMFLGTAWG,-0.285 ± 0.34
2,VALIRGRD,0.292 ± 0.32
3,GPRAN,-1.55 ± 2.7
4,DFYLWPGMFSKYLGLNATLS,-0.604 ± 0.57
5,YLCLAECSLSPYNTTLVGGV,-1.6 ± 0.81
6,YSFIKCGSMCKEYKPCPTKL,-0.11 ± 0.51
7,LSRTKGYC,0.558 ± 0.33
8,SSPRTLRGLIYGRIKYYVLE,1.84 ± 0.35
9,RRRPGPLPRCAF,1.96 ± 0.18
10,INYGMRCYEE,-0.427 ± 1.2
11,GSRSHRSH,0.751 ± 0.67
12,DNTGQVRIW,-0.562 ± 0.62
13,STGPNLKVLVSSKS,-1.66 ± 0.69
14,IPYLN,1.15 ± 0.54
15,VQAKYNSSLGESNRDSDCAS,0.187 ± 0.34
16,LFKLSLGCTYCSFA,-0.292 ± 0.42
17,ALKWSTLLTLFLGYSHIVSM,1.46 ± 0.38
18,LYQCRNDCCYDWMLWYTWRS,0.505 ± 0.34
19,SVGFDDGPRSGTLNGFVSRR,-0.262 ± 0.6
20,GLGYPSVFSEHCVGLRDCEL,-0.189 ± 1.7
21,GTSKTTGERDWLRPMTRDI,-0.94 ± 2.7
